# Reference: article PMC10279920, “Single-molecule visualization of Pif1 helicase translocation on single-stranded DNA” (The Journal of Biological Chemistry, 2023)
# T1: GFP-Pif1 (Saccharomyces cerevisiae, UniProt P07271, V385A)
# T1 construct: N-terminal superfolder GFP fusion of nuclear isoform residues 40-859, pRSF-Duet-1, E. coli Rosetta2(DE3), Ni-NTA purified
# T1 sequence (P07271 40-859 V385A): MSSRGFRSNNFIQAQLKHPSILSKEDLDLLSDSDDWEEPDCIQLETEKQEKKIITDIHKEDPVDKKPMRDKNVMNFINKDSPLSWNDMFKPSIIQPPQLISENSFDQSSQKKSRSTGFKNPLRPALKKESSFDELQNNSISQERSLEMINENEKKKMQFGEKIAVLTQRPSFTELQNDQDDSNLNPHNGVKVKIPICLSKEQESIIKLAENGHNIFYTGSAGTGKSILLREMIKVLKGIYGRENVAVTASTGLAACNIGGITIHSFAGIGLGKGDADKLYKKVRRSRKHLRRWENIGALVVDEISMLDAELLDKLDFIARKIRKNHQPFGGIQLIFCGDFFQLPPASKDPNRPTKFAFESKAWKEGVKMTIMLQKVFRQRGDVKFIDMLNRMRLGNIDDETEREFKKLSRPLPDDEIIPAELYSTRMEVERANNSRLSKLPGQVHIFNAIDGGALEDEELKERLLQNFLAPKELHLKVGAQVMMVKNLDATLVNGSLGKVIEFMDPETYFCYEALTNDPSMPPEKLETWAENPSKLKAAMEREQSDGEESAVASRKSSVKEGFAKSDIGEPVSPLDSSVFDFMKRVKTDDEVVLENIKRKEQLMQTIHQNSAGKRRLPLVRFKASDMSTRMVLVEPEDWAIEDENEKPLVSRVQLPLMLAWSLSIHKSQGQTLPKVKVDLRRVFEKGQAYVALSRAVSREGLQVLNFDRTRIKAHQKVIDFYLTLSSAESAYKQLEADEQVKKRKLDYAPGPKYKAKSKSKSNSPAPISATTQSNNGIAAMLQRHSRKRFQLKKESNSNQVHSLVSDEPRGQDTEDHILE
# T2: GFP-Pif1 K387A (Saccharomyces cerevisiae, UniProt P07271 40-859, K387A)
# T2 sequence: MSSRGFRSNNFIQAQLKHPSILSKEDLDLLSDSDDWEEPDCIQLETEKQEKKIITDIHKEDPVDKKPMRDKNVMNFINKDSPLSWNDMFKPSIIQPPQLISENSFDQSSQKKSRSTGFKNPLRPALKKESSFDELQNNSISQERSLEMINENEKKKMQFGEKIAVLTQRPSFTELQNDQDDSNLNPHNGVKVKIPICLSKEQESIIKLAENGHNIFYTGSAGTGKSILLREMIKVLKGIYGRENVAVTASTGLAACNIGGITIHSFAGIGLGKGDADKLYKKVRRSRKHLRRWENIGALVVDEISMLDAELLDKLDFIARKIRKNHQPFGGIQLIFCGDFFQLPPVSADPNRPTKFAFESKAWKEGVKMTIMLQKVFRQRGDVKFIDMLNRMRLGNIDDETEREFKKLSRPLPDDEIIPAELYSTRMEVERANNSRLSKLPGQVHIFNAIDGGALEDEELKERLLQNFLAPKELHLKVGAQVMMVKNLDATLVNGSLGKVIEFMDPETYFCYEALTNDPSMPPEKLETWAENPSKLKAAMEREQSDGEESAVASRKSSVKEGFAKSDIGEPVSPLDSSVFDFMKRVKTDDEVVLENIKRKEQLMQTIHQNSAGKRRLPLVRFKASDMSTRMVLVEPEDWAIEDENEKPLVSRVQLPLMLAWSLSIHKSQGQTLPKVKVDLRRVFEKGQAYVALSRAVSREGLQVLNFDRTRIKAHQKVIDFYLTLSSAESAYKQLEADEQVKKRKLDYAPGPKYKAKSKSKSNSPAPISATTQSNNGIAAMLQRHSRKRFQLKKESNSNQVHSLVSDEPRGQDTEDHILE
# T3: Pif1 WT (GFP-Pif1) (Saccharomyces cerevisiae, UniProt P07271 40-859)
# T3 sequence: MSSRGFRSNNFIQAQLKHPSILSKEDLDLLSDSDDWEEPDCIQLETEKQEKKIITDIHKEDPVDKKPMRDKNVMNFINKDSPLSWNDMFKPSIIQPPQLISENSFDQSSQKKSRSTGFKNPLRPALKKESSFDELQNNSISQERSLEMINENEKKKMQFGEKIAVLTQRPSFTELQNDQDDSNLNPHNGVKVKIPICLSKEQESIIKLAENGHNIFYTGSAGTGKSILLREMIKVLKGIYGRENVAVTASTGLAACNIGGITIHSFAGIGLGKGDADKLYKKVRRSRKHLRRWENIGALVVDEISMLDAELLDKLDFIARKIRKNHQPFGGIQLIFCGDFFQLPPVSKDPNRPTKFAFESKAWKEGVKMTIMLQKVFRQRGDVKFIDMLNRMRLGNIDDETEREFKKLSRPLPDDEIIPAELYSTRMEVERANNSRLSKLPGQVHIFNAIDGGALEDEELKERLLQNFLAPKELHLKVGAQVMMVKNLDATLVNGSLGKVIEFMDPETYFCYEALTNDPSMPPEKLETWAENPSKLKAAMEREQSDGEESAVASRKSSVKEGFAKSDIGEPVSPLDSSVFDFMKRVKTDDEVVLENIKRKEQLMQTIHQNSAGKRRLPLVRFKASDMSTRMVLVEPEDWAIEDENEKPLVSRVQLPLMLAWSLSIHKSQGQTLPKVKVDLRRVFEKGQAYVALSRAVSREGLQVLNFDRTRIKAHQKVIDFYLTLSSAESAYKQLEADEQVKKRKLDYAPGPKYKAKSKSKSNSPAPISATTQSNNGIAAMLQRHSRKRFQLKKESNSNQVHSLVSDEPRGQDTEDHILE
# Assays:
# GFP-Pif1 = target: T1, GFP-Pif1; experiment: ATP hydrolysis, [γ-32P]-ATP TLC, Michaelis-Menten fit; type: biochemical; conditions: M13 ssDNA 1.5 μM nt, 10 nM Pif1, 5 mM MgCl2, 60 mM KCl, pH 7.5, 30 °C, no RPA; labelled compound as tracer
# GFP-Pif1 K387A = target: T2, GFP-Pif1 K387A; experiment: EMSA; no ATP, 5 mM Mg2+; 35 mM Tris-HCl pH 7.5, 1 mM DTT, 5 mM MgCl2, 60 mM KCl, 0.1 mg/ml BSA, no ATP, 30 min at 30 C; 5 nM ssDNA; conditions: protein: recombinant; tags: N-terminal superfolder GFP; Ni-NTA purified; label: 5' Alexa647
# Pif1 WT (GFP-Pif1) = target: T3, Pif1 WT (GFP-Pif1); experiment: as above; conditions: protein: recombinant; tags: N-terminal superfolder GFP; Ni-NTA purified; label: 5' Alexa647
Molecule,Km (GFP-Pif1),Kd (GFP-Pif1 K387A),Kd (Pif1 WT (GFP-Pif1))
Nc1ncnc2c1ncn2[C@@H]1O[C@H](COP(=O)(O)OP(=O)(O)OP(=O)(O)O)[C@@H](O)[C@H]1O [ATP],1280 ± 540 µM,–,–
GCTAGCAGTAGCCAGCATCGAACGTACGATCGGTAACGTA (ssDNA) [40-nt ssDNA],–,29 nM,12.6 ± 3.81 nM
